Two molecules from article PMC6520018 can be followed below.

Numbering of substitutions follows the chain as printed. Where two headings read alike, the source gives them in different places.

Common to all, as to assay: EMSA
Data set [1] concerns the target T1, AtALBA2 (Arabidopsis thaliana, UniProt O22969 1-130).
T1 sequence: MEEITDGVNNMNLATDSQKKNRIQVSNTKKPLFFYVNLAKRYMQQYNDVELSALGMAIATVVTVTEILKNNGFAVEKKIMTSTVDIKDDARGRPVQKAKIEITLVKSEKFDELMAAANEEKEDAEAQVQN

In another data set the target is T2, AtALBA2 K30E (Arabidopsis thaliana, UniProt O22969 1-130, K30E).
T2 sequence: T1 sequence with K30E

For data set [2], the target named is T1, AtALBA2. This is another data set of the same source.

B1: dsDNA (EMSA-DNA) (dsDNA)
DNA 1: TCGAATCTCATCATCGCCGC
DNA 2: GCGGCGATGATGAGATTCGA
Turning to B1, the values for the binding result with AtALBA2 [1] and with AtALBA2 K30E were “binds” and “no binding”, respectively.

B2: artificial R-loop (mixed)
DNA 1: GCTCGCAAACTACTTAGATGTCATCCGCGAGG
DNA 2: CCTCGCAAGCGGCGATGATGAGATTCGAAAGCGAGC
RNA: UCGAAUCUCAUCAUCGCCGC
Regarding B2, in the data set with AtALBA2 [2], the binding result is given as “binds”.
